Laboratory results as given in PMC11187117, “Structure of the endosomal CORVET tethering complex” (Nature Communications, 2024).

Columns and labels:
[1] = molecular target: T1, Vps18 (CORVET and HOPS core subunit) (yeast, UniProt P27801 1-918); experiment: cryo-EM structure; single-particle cryo-EM of the hexameric CORVET co-expressed in yeast and purified by 3xFLAG on Vps8 and SEC; about 0.8 mg/ml; consensus map 4.6 Å, local refinements to 3.8 Å; details: both partners purified
T1 construct: Vps18, yeast, core subunit shared by CORVET and HOPS
T1 sequence: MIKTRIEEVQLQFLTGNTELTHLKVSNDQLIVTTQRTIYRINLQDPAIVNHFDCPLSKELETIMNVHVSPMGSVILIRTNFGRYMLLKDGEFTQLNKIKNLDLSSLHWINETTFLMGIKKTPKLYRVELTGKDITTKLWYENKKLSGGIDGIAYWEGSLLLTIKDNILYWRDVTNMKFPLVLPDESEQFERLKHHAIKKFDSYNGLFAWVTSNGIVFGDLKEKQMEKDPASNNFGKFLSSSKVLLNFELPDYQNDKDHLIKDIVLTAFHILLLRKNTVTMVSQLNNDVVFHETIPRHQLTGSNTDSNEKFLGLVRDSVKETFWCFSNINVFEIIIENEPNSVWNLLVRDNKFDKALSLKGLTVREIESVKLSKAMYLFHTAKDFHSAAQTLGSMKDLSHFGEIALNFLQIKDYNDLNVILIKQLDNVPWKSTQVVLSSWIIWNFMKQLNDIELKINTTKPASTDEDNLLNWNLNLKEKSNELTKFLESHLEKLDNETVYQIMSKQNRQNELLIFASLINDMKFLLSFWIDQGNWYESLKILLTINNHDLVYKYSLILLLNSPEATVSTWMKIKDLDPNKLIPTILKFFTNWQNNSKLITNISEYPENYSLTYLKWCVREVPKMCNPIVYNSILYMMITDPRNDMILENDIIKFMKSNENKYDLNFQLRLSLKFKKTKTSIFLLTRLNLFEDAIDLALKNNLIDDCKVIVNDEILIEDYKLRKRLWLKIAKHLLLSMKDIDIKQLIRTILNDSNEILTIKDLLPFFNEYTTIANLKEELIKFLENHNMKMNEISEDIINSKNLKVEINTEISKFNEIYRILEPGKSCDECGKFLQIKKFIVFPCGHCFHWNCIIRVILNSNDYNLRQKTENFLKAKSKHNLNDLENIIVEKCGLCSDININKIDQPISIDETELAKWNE

[2] = molecular target: T2, Vps16 (CORVET and HOPS subunit, SNARE-binding module) (yeast, UniProt Q03308 1-798); experiment: as above; details: both partners purified
T2 construct: Vps16, yeast, subunit shared by CORVET and HOPS
T2 sequence: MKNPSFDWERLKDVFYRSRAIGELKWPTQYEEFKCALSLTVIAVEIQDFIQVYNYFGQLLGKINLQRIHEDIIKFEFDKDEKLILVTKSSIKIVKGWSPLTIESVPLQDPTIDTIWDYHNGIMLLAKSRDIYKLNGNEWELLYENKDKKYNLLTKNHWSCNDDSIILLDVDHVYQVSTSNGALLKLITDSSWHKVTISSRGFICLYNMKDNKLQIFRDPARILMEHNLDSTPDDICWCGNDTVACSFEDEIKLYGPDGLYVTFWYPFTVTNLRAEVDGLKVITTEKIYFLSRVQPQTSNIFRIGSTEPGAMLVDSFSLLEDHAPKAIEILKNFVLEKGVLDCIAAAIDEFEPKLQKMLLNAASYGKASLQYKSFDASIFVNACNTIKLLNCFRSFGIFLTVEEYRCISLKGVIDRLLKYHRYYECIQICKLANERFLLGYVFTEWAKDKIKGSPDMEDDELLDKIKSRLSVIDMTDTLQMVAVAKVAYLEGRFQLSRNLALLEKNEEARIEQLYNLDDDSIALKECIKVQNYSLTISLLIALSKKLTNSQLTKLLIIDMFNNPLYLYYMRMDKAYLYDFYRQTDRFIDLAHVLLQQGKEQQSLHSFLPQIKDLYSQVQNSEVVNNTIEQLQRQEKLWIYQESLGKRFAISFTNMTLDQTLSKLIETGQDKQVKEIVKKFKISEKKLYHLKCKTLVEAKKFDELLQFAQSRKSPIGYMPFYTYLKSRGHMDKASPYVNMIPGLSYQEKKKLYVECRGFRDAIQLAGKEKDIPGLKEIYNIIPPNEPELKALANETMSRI

B1: Vps33 (CORVET and HOPS subunit, SM protein of the SNARE-binding module) (natural protein, yeast)
chain: MNRFWNTKKFSLTNADGLCATLNEISQNDEVLVVQPSVLPVLNSLLTFQDLTQSTPVRKITLLDDQLSDDLPSALGSVPQMDLIFLIDVRTSLRLPPQLLDAAQKHNLSSLHIIYCRWKPSFQNTLEDTEQWQKDGFDLNSKKTHFPNVIESQLKELSNEYTLYPWDLLPFPQIDENVLLTHSLYNMENVNMYYPNLRSLQSATESILVDDMVNSLQSLIFETNSIITNVVSIGNLSKRCSHLLKKRIDEHQTENDLFIKGTLYGERTNCGLEMDLIILERNTDPITPLLTQLTYAGILDDLYEFNSGIKIKEKDMNFNYKEDKIWNDLKFLNFGSIGPQLNKLAKELQTQYDTRHKAESVHEIKEFVDSLGSLQQRQAFLKNHTTLSSDVLKVVETEEYGSFNKILELELEILMGNTLNNDIEDIILELQYQYEVDQKKILRLICLLSLCKNSLREKDYEYLRTFMIDSWGIEKCFQLESLAELGFFTSKTGKTDLHITTSKSTRLQKEYRYISQWFNTVPIEDEHAADKITNENDDFSEATFAYSGVVPLTMRLVQMLYDRSILFHNYSSQQPFILSREPRVSQTEDLIEQLYGDSHAIEESIWVPGTITKKINASIKSNNRRSIDGSNGTFHAAEDIALVVFLGGVTMGEIAIMKHLQKILGKKGINKRFIIIADGLINGTRIMNSIS
notes: Vps33, yeast, subunit shared by CORVET and HOPS
[1]
  binding result: binds
[2]
  binding result: binds
